Data as given in article PMC11098746 (2024).

B1: ADP276 (protein)
chain: DRGHLDYPRNPRREGSFPQGQLSMLQEKIDHLERLLAENNEIISNIRDSVINLSESVEDGPKSSQSNFSQGAGSHLLPSQLSLSVDTADCLFASQSGSHNSDVQMLDVYSLISFDNPDGGVWKQGFDITYESNEWDTEPLQVFVVPHSHNDPGWLKTFNDYFRDKTQYIFNNMVLKLKEDSRRKFIWSEISYLSKWWDIIDIQKKDAVKSLIENGQLEIVTGGWVMPDEATPHYFALIDQLIEGHQWLENNIGVKPRSGWAIDPFGHSPTMAYLLNRAGLSHMLIQRVHYAVKKHFALHKTLEFFWRQNWDLGSVTDILCHMMPFYSYDIPHTCGPDPKICCQFDFKRLPGGRFGCPWGVPPETIHPGNVQSRARMLLDQYRKKSKLFRTKVLLAPLGDDFRYCEYTEWDLQFKNYQQLFDYMNSQSKFKVKIQFGTLSDFFDALDKADETQRDKGQSMFPVLSGDFFTYADRDDHYWSGYFTSRPFYKRMDRIMESHLRAAEILYYFALRQAHKYKINKFLSSSLYTALTEARRNLGLFQHHDAITGTAKDWVVVDYGTRLFHSLMVLEKIIGNSAFLLILKDKLTYDSYSPDTFLEMDLKQKSQDSLPQKNIIRLSAEPRYLVVYNPLEQDRISLVSVYVSSPTVQVFSASGKPVEVQVSAVWDTANTISETAYEISFRAHIPPLGLKVYKILESASSNSHLADYVLYKNKVEDSGIFTIKNMINTEEGITLENSFVLLRFDQTGLMKQMMTKEDGKHHEVNVQFSWYGTTIKRDKSGAYLFLPDGNAKPYVYTTPPFVRVTHGRIYSEVTCFFDHVTHRVRLYHIQGIEGQSVEVSNIVDIRKVYNREIAMKISSDIKSQNRFYTDLNGYQIQPRMTLSKLPLQANVYPMTTMAYIQDAKHRLTLLSAQSLGVSSLNSGQIEVIMDRRLMQDDNRGLEQGIQDNKITANLFRILLEKRSAVNTEEEKKSVSYPSLLSHITSSLMNHPVIPMANKFSSPTLELQGEFSPLQSSLPCDIHLVNLRTIQSKVGNGHSNEAALILHRKGFDCRFSSKGTGLFCSTTQGKILVQKLLNKFIVESLTPSSLSLMHSPPGTQNISEINLSPMEISTFRIQLR
modifications: bait human Fc-tagged dimer
B2: ADP373 (protein)
chain: MAKASCLPLGFIVFLPAVLLLVAPPLPAADAAHEFTVYRMQQYDLQGQPYGTRNAVLNTEARTMAAEVLSRRCVLMRLLDFSYEQYQKALRQSAGAVVIILPRAMAAVPQDVVRQFMEIEPEMLAMETAVPVYFAVEDEALLSIYKQTQAASASQGSASAAEVLLRTATANGFQMVTSGVQSKAVSDWLIASVEGRLTGLGGEDLPTIVIVAHYDAFGVAPWLSLGADSNGSGVSVLLELARLFSRLYTYKRTHAAYNLLFFASGGGKFNYQGTKRWLEDNLDHTDSSLLQDNVAFVLCLDTVGRGSSLHLHVSKPPREGTLQHAFLRELETVAAHQFPEVRFSMVHKRINLAEDVLAWEHERFAIRRLPAFTLSHLESHRDGQRSSIMDVRSRVDSKTLTRNTRIIAEALTRVIYNLTEKGTPPDMPVFTEQMQIQQEQLDSVMDWLTNQPRAAQLVDKDSTFLSTLEHHLSRYLKDVKQHHVKADKRDPEFVFYDQLKQVMNAYRVKP
modifications: bait human Fc-tagged dimer
B3: ADP103 (protein)
chain: MAAALFVLLGFALLGTHGASGAAGFVQAPLSQQRWVGGSVELHCEAVGSPVPEIQWWFEGQGPNDTCSQLWDGARLDRVHIHATYHQHAASTISIDTLVEEDTGTYECRASNDPDRNHLTRAPRVKWVRAQAVVLVLEPGTVFTTVEDLGSKILLTCSLNDSATEVTGHRWLKGGVVLKEDALPGQKTEFKVDSDDQWGEYSCVFLPEPMGTANIQLHGPPRVKAVKSSEHINEGETAMLVCKSESVPPVTDWAWYKITDSEDKALMNGSESRFFVSSSQGRSELHIENLNMEADPGQYRCNGTSSKGSDQAIITLRVRSHL
modifications: bait human Fc-tagged dimer
B4: ADP392 (protein)
chain: GLTRSCDSSGDGGPGTAPAPSHLPSSTASPSGPPAQDQDICPASEDESGQWKNFRLPDFVNPVHYDLHVKPLLEEDTYTGTVSISINLSAPTRYLWLHLRETRITRLPELKRPSGDQVQVRRCFEYKKQEYVVVEAEEELTPSSGDGLYLLTMEFAGWLNGSLVGFYRTTYTENGQVKSIVATDHEPTDARKSFPCFDEPNKKATYTISITHPKEYGALSNMPVAKEESVDDKWTRTTFEKSVPMSTYLVCFAVHQFDSVKRISNSGKPLTIYVQPEQKHTAEYAANITKSVFDYFEEYFAMNYSLPKLDKIAIPDFGTGAMENWGLITYRETNLLYDPKESASSNQQRVATVVAHELVHQWFGNIVTMDWWEDLWLNEGFASFFEFLGVNHAETDWQMRDQMLLEDVLPVQEDDSLMSSHPIIVTVTTPDEITSVFDGISYSKGSSILRMLEDWIKPENFQKGCQMYLEKYQFKNAKTSDFWAALEEASRLPVKEVMDTWTRQMGYPVLNVNGVKNITQKRFLLDPRANPSQPPSDLGYTWNIPVKWTEDNITSSVLFNRSEKEGITLNSSNPSGNAFLKINPDHIGFYRVNYEVATWDSIATALSLNHKTFSSADRASLIDDAFALARAQLLDYKVALNLTKYLKREENFLPWQRVISAVTYIISMFEDDKELYPMIEEYFQGQVKPIADSLGWNDAGDHVTKLLRSSVLGFACKMGDREALNNASSLFEQWLNGTVSLPVNLRLLVYRYGMQNSGNEISWNYTLEQYQKTSLAQEKEKLLYGLASVKNVTLLSRYLDLLKDTNLIKTQDVFTVIRYISYNSYGKNMAWNWIQLNWDYLVNRYTLNNRNLGRIVTIAEPFNTELQLWQMESFFAKYPQAGAGEKPREQVLETVKNNIEWLKQHRNTIREWFFNLLESG
modifications: bait human Fc-tagged dimer
B5: ADP268 (protein)
chain: WEYGDLHLFGPNQRPAPCYDPCEAVLVESIPEGLDFPNASTGNPSTSQAWLGLLAGAHSSLDIASFYWTLTNNDTHTQEPSAQQGEEVLRQLQTLAPKGVNVRIAVSKPSGPQPQADLQALLQSGAQVRMVDMQKLTHGVLHTKFWVVDQTHFYLGSANMDWRSLTQVKELGVVMYNCSCLARDLTKIFEAYWFLGQAGSSIPSTWPRFYDTRYNQETPMEICLNGTPALAYLASAPPPLCPSGRTPDLKALLNVVDNARSFIYVAVMNYLPTLEFSHPHRFWPAIDDGLRRATYERGVKVRLLISCWGHSEPSMRAFLLSLAALRDNHTHSDIQVKLFVVPADEAQARIPYARVNHNKYMVTERATYIGTSNWSGNYFTETAGTSLLVTQNGRGGLRSQLEAIFLRDWDSPYSHDLDTSADSVGNACRLL
modifications: bait human Fc-tagged dimer
B6: ADP144 (protein)
chain: MELRARGWWLLCAAAALVACARGDPASKSRSCGEVRQIYGAKGFSLSDVPQAEISGEHLRICPQGYTCCTSEMEENLANRSHAELETALRDSSRVLQAMLATQLRSFDDHFQHLLNDSERTLQATFPGAFGELYTQNARAFRDLYSELRLYYRGANLHLEETLAEFWARLLERLFKQLHPQLLLPDDYLDCLGKQAEALRPFGEAPRELRLRATRAFVAARSFVQGLGVASDVVRKVAQVPLGPECSRAVMKLVYCAHCLGVPGARPCPDYCRNVLKGCLANQADLDAEWRNLLDSMVLITDKFWGTSGVESVIGSVHTWLAEAINALQDNRDTLTAKVIQGCGNPKVNPQGPGPEEKRRRGKLAPRERPPSGTLEKLVSEAKAQLRDVQDFWISLPGTLCSEKMALSTASDDRCWNGMARGRYLPEVMGDGLANQINNPEVEVDITKPDMTIRQQIMQLKIMTNRLRSAYNGNDVDFQDASDDGSGSGSGDGCLDDLCSRKVSRKSSSSRTPLTHALPGLSEQEGQKTSAAS
modifications: bait human Fc-tagged dimer
B7: ADP361 (protein)
chain: MAPPQVLAFGLLLAAATATFAAAQEECVCENYKLAVNCFVNNNRQCQCTSVGAQNTVICSKLAAKCLVMKAEMNGSKLGRRAKPEGALQNNDGLYDPDCDESGLFKAKQCNGTSMCWCVNTAGVRRTDKDTEITCSERVRTYWIIIELKHKAREKPYDSKSLRTALQKEITTRYQLDPKFITSILYENNVITIDLVQNSSQKTQNDVDIADVAYYFEKDVKGESLFHSKKMDLTVNGEQLDLDPGQTLIYYVDEKAPEFSMQGLKAG
modifications: bait human Fc-tagged dimer
B8: ADP141 (protein)
chain: MGRLASRPLLLALLSLALCRGRVVRVPTATLVRVVGTELVIPCNVSDYDGPSEQNFDWSFSSLGSSFVELASTWEVGFPAQLYQERLQRGEILLRRTANDAVELHIKNVQPSDQGHYKCSTPSTDATVQGNYEDTVQVKVLADSLHVGPSARPPPSLSLREGEPFELRCTAASASPLHTHLALLWEVHRGPARRSVLALTHEGRFHPGLGYEQRYHSGDVRLDTVGSDAYRLSVSRALSADQGSYRCIVSEWIAEQGNWQEIQEKAVEVATVVIQPSVLRAAVPKNVSVAEGKELDLTCNITTDRADDVRPEVTWSFSRMPDSTLPGSRVLARLDRDSLVHSSPHVALSHVDARSYHLLVRDVSKENSGYYYCHVSLWAPGHNRSWHKVAEAVSSPAGVGVTWLEPDYQVYLNASKVPGFADDPTELACRVVDTKSGEANVRFTVSWYYRMNRRSDNVVTSELLAVMDGDWTLKYGERSKQRAQDGDFIFSKEHTDTFNFRIQRTTEEDRGNYYCVVSAWTKQRNNSWVKSKDVFSKPVNIFWALEDSVLVVKARQPKPFFAAGNTFEMTCKVSSKNIKSPRYSVLIMAEKPVGDLSSPNETKYIISLDQDSVVKLENWTDASRVDGVVLEKVQEDEFRYRMYQTQVSDAGLYRCMVTAWSPVRGSLWREAATSLSNPIEIDFQTSGPIFNASVHSDTPSVIRGDLIKLFCIITVEGAALDPDDMAFDVSWFAVHSFGLDKAPVLLSSLDRKGIVTTSRRDWKSDLSLERVSVLEFLLQVHGSEDQDFGNYYCSVTPWVKSPTGSWQKEAEIHSKPVFITVKMDVLNAFKYP
modifications: bait human Fc-tagged dimer
B9: ADP377 (protein)
chain: FSECNKCDEKKERGLPAGDVLEPVQKPHEGPGEMGKPVVIPKEDQEKMKEMFKINQFNLMASEMIALNRSLPDVRLEGCKTKVYPDNLPTTSVVIVFHNEAWSTLLRTVHSVINRSPRHMIEEIVLVDDASERDFLKRPLESYVKKLKVPVHVIRMEQRSGLIRARLKGAAVSKGQVITFLDAHCECTVGWLEPLLARIKHDRRTVVCPIIDVISDDTFEYMAGSDMTYGGFNWKLNFRWYPVPQREMDRRKGDRTLPVRTPTMAGGLFSIDRDYFQEIGTYDAGMDIWGGENLEISFRIWQCGGTLEIVTCSHVGHVFRKATPYTFPGGTGQIINKNNRRLAEVWMDEFKNFFYIISPGVTKVDYGDISSRVGLRHKLQCKPFSWYLENIYPDSQIPRHYFSLGEIRNVETNQCLDNMARKENEKVGIFNCHGMGGNQVFSYTANKEIRTDDLCLDVSKLNGPVTMLKCHHLKGNQLWEYDPVKLTLQHVNSNQCLDKATEEDSQVPSIRDCNGSRSQQWLLRNVTLPEIF
modifications: bait human Fc-tagged dimer
B10: ADP342 (protein)
chain: MATQLPAYVAILLFYVSRASCQDTFTAAVYEHAAILPNATLTPVSREEALALMNRNLDILEGAITSAADQGAHIIVTPEDAIYGWNFNRDSLYPYLEDIPDPEVNWIPCNNRNRFGQTPVQERLSCLAKNNSIYVVANIGDKKPCDTSDPQCPPDGRYQYNTDVVFDSQGKLVARYHKQNLFMGENQFNVPKEPEIVTFNTTFGSFGIFTCFDILFHDPAVTLVKDFHVDTIVFPTAWMNVLPHLSAVEFHSAWAMGMRVNFLASNIHYPSKKMTGSGIYAPNSSRAFHYDMKTEEGKLLLSQLDSHPSHSAVVNWTSYASSIEALSSGNKEFKGTVFFDEFTFVKLTGVAGNYTVCQKDLCCHLSYKMSENIPNEVYALGAFDGLHTVEGRYYLQICTLLKCKTTNLNTCGDSAETASTRFEMFSLSGTFGTQYVFPEVLLSENQLAPGEFQVSTDGRLFSLKPTSGPVLTVTLFGRLYEKDWASNASSGLT
modifications: bait human Fc-tagged dimer

Target: Circumsporozoite protein (CSP) (Plasmodium falciparum (isolate 3D7), UniProt Q7K740)
Sequence (Q7K740 19-374): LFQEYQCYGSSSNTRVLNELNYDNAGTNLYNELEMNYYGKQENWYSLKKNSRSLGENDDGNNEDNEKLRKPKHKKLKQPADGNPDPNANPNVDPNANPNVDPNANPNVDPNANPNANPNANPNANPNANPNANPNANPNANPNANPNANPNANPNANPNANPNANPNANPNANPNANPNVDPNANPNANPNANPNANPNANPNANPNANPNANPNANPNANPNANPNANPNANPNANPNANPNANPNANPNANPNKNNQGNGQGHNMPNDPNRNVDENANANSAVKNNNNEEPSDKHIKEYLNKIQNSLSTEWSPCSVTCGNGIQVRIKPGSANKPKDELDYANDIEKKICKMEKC
Experiment: AVEXIS screen signal:noise (double-corrected)

Binder	binding score
B1	0.79
B2	1.26
B3	0.981
B4	0.793
B5	0.585
B6	0.883
B7	6.45
B8	2.49
B9	0.747
B10	1.71
